The source of these data is article PMC6930364.

The target of the test is L-DOPA dioxygenase from Streptomyces sclerotialus (SsDDO) (Streptomyces sclerotialus). Put plainly: crystal structure.

Consider “L-DOPA dioxygenase from Streptomyces sclerotialus (SsDDO) (enzyme)”, for which the stoichiometry N (in general, the number of molecules, sites or subunits per partner or assembly) stood at 2.
